Source: patent publication EP4678181A1

Legend:
[1] = molecular target: biotin-labeled human interleukin-2 receptor alpha subunit (ACROBiosystems) (human) (UniProt P01589); experiment: SPR (Biacore T200), biotin-labeled receptor subunit on streptavidin chip; relative to aldesleukin
[2] = molecular target: T1, biotin-labeled human interleukin-2 receptor beta subunit (ACROBiosystems) (human) (UniProt P14784); experiment: as above
T1 sequence (biotin-labeled (site not stated), looked up): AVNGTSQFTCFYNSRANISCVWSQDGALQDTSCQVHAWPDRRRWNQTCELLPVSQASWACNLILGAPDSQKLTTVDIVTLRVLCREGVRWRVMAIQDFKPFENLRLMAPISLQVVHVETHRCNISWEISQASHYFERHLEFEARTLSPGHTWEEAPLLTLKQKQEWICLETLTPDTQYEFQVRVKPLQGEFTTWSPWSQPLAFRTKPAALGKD

[3] = molecular target: interleukin-2 alpha receptor (SYMANSIS, #4102H) to which a human immunoglobulin Fc region was linked (UniProt P01589); experiment: SPR (Biacore T200), receptor-Fc captured by anti-human Ig antibody on CM5 chip; relative to analog 1 (aldesleukin)
[4] = molecular target: T2, interleukin-2 beta receptor (SYMANSIS, #4122H) to which a human immunoglobulin Fc region was linked (UniProt P14784); experiment: as above
T2 sequence (looked up): T1 sequence (biotin-labeled (site not stated), looked up)

Measured: Relative binding affinity (%)

interleukin-2 analog 1 (aldesleukin), sequence (P60568 other isoform, or with tags, fused parts or gaps): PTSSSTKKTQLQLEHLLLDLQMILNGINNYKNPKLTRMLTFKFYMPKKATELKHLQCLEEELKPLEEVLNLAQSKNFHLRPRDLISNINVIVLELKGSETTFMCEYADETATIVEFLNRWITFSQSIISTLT
interleukin-2 alpha receptor (SYMANSIS, #4102H) to which a human immunoglobulin Fc region was linked, sequence (P01589 22-213 limits assumed): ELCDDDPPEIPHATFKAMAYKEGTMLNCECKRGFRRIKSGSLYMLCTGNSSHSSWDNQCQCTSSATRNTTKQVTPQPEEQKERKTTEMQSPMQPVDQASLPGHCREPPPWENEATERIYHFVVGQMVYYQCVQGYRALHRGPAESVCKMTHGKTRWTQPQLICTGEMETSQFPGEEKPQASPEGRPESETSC
biotin-labeled human interleukin-2 receptor alpha subunit (ACROBiosystems) (human), sequence (P01589 22-213): as the sequence (P01589 22-213 limits assumed) above

interleukin-2 analog 1 (aldesleukin) (from UniProt P60568 22-153) (ligand)
100%: all assays above
